Laboratory results taken from PMC3749045.

Molecular target: NarXS1 (NarX periplasmic sensor domain, residues 38 - 151) (Escherichia coli K-12) (UniProt P0AFA2)
Assay: crystal structure

- stoichiometry N: 2
Substance: NarXS1 (NarX periplasmic sensor domain, residues 38 - 151) (from UniProt P0AFA2 38-151) (domain or fragment)
